Consider 2 substances from publication PMC9695261.

The target of this experiment is Kansetin (human) (UniProt Q9BYF1). As to the kind of experiment: SPR.

In turn, “His-tagged RBD of the SARS-CoV-2 Omicron BA.5 strain (domain or fragment)” came in with a Kd of 33.1 nM.
With “Spike S1+S2 trimer of the SARS-CoV-2 Omicron BA.5 strain (natural protein)”, the Kd was found to be 1.22 nM.
